Marks after values point to notes of the source that are not given here.

Data set [1] deals with androgen receptor, estrogen receptor, and thyroid hormone receptor. As to the kind of experiment: Reporter gene activation by hormone-activated nuclear receptors in transiently transfected CV-1 cells. It is filed as cell-based. The conditions noted are these: co-expression of GRIP1 with NR, CV-1 cells, hormone present (lane d). On the procedure:
(A) Transient transfection assays with CV-1 cells were performed as in FIG. 5 with 0.5 μg of GK1 reporter gene and 0.5 μg of each of the indicated vectors. (B) CV-1 cells were transiently transfected as in FIG. 5 with the following vectors, as indicated: 0.5 μg of nuclear receptor expression vector pSVAR0 (Brinkmann, A. O. et al. (1989) J. Steroid Biochem. Molec. Biol. 34:307) expressing AR, pHE0 (Green, S. et al. (1988) Nucleic Acids Res. 16:369) expressing ER, or pCMX.hTRβ1 (Feng, W. et al. (1998) Science 280:1747) expressing TR; 0.5 μg of a luciferase reporter gene with an appropriate promoter, MMTV promoter for AR, or MMTV promoter with the native glucocorticoid response elements replaced by a single estrogen response element for ER or palindromic thyroid hormone response element for TR (Umesono, K. and R. M. Evans (1989) Cell 57:1139); 0.5 μg of pSG5.HA-GRIP1; and 0.5 μg of pSG5.HA-CARM1 or pSG5.HA-CARM1 (VLD mutant). Transfection efficiency was monitored by using βgalactosidase activity expressed from 0.1 μg of co-transfected pCMV-βgal vector (Hong, H. et al. (1996) Proc. Natl. Acad. Sci. USA 93:4948-4952) as an internal control. After transfection, cells were grown in charcoal-treated serum; where indicated 20 nM hormone (H), i.e. dihydrotestosterone for AR, estradiol for ER, or triiodothyronine for TR, was included during the last 40 h of culture. […]
In general terms: Reporter assays use an easily measured gene product as a stand-in for the process of interest.

In another data set the test system is hnRNPA1. Put plainly: Methylation of hnRNP A1, SDS-PAGE and fluorography (FIG. 8C). The conditions noted are these: 0.083 mg/ml hnRNP-A1. The format is biochemical, human. On the procedure: CARM1 and PRMT1 have different protein methyltransferase substrate specificities. CARM1 methylates histone H3, whereas PRMT1 methylates histone H4. […] (A,B) Calf thymus histones (Boehringer Mannheim) were incubated for 30 min at 30° C. in 32.5 μl reactions containing 20 mM Tris-Cl, 0.2 M NaCl, 4 mM EDTA, pH 8.0, 0.32 mg/ml individual histone (2a, 2b, 3, or 4) or 1.3 mg/ml mixed histone (M), 0.037 mg/ml GST-CARM1 or GST-PRMT1, and 7 μM S-adenosyl-L-[methyl-^3H]methionine (specific activity of 14.7 Ci/mmol). Reactions were stopped by addition of SDS-NuPAGE sample buffer (Novex), and 40% of each stopped reaction was then subjected to SDS-PAGE in 4-12% NuPAGE Bis-Tris gradient gels (Novex) using the Na-MES running buffer. Gels were stained with Coomassie Blue R-250 (A), and then subjected to fluorography (Chamberlin, M. (1978) Anal. Biochem. 98:132) for 12 h at −70° C. on sensitized Kodak XAR-5 film (B). Molecular weight markers (MW) are shown at left. Concentrations of GST fusion proteins were determined in comparison with bovine serum albumin standards (Sigma) by SDS polyacrylamide gel electrophoresis and Coomassie Blue staining; it was assumed that bovine serum albumin stained twice as intensely as most other proteins. Concentrations of histones and hnRNP A1 were determined by the method of Lowry (Lowry, O. H. et al. (1951) J. Biol. Chem. 193:265). […]

In data set [2] the target is T1, K1 peptide SEQ ID NO: 5 […]-NH2 (Mus musculus, UniProt Q9WVG6, W314R).
T1 construct: A 3.2-kb partial CARM1 cDNA clone with an open reading frame of 606 amino acids (CARM1(3-608)); made in house; host or cells: E. coli strain BL21
T1 sequence (Q9WVG6 3-608 W314R): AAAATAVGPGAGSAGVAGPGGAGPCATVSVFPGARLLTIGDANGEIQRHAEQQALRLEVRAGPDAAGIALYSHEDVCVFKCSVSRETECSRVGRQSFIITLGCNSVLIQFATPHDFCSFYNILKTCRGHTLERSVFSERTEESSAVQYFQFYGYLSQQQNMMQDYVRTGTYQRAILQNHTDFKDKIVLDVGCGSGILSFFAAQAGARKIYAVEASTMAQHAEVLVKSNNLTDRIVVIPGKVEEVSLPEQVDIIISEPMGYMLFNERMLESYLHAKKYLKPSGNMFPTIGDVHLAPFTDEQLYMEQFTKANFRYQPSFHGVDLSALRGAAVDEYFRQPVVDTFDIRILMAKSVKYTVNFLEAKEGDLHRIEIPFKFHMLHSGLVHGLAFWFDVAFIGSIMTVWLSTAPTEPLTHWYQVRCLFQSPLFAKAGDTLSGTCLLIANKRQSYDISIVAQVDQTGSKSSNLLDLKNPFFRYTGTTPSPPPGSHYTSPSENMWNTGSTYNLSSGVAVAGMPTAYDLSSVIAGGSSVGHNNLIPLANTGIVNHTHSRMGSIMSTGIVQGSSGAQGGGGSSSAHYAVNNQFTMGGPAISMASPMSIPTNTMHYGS
As to the kind of experiment: Methyltransferase reaction with K1 peptide substrate, reversed-phase HPLC separation. It is filed as biochemical. Particulars: substrate K1 peptide (120 μM); enzyme 0.03-0.05 mg/ml.

Data set [3] deals with R1 peptide SEQ ID NO: 4 […]-NH2. Put plainly: Methyltransferase reaction with R1 peptide substrate, reversed-phase HPLC separation. The conditions noted are these: substrate R1 peptide (120 μM); enzyme 0.03-0.05 mg/ml. It is filed as biochemical.
The test system of data set [4] is mixed histones (calf thymus). As to the kind of experiment: Methyltransferase reaction with mixed histones, reversed-phase HPLC separation. It is filed as biochemical. The conditions noted are these: substrate mixed histones (2.7 mg/ml), enzyme 0.03-0.05 mg/ml.

For the molecule “GRIP1: p160 nuclear receptor coactivator”, in data set [1], the “enhancement of reporter gene expression by the hormone-activated NR” value is recorded as 2 to 27 fold. As to “PRMT1: related mammalian protein arginine methyltransferase [reference compound]”, the “methylation of hnRNPA1” value with hnRNPA1 is recorded as “good substrate”.

B1: GST-CARM1: glutathione S-transferase fusion protein of CARM1 produced in E. coli (protein)
chain: T1 sequence (Q9WVG6 3-608 W314R)
modifications: left off: a dimerising Fc or GST
notes: glutathione S-transferase fusion protein of CARM1 produced in E. coli
Consider B1, for which the Methyltransferase specific activity in data set [2] is on record as 0.7 pmol/min/mg; in data set [3], 21.6-54.5^a pmol/min/mg; in data set [4], 971 pmol/min/mg.

Source of the values: US8247168B2, “Regulation of gene expression by protein methylation” (University of Southern California, priority 1998, dated 2012).
